Measurements as given in the supplement of paper PMC12458215.
± gives the uncertainty stated by the source.

Tested on: HEK293T
Assay: plasma membrane surface immunostaining intensity (anti-HA, deep receptor scanning) (arbitrary fluorescence units); higher = higher plasma membrane expression

Sequence | plasma membrane surface immunostaining intensity (GPCR class: A) | plasma membrane surface immunostaining intensity (GPCR class: A (Olfactory)) | also measured
MNEDLKVNLSGLPRDYLDAAAAENISAAVSSRVPAVEPEPELVVNPWDIVLCTSGTLISCENAIVVLIIFHNPSLRAPMFLLIGSLALADLLAGIGLITNFVFAYLLQSEATKLVTIGLIVASFSASVCSLLAITVDRYLSLYYALTYHSERTVTFTYVMLVMLWGTSICLGLLPVMGWNCLRDESTCSVVRPLTKNNAAILSVSFLFMFALMLQLYIQICKIVMRHAHQIALQHHFLATSHYVTTRKGVSTLAIILGTFAACWMPFTLYSLIADYTYPSIYTYATLLPATYNSIINPVIYAFRNQEIQKALCLICCGCIPSSLAQRARSPSDV [GPR12] | 1260 ± 200 | – | –
MKMLTRLQVLTLALFSKGFLLSLGDHNFLRREIKIEGDLVLGGLFPINEKGTGTEECGRINEDRGIQRLEAMLFAIDEINKDDYLLPGVKLGVHILDTCSRDTYALEQSLEFVRASLTKVDEAEYMCPDGSYAIQENIPLLIAGVIGGSYSSVSIQVANLLRLFQIPQISYASTSAKLSDKSRYDYFARTVPPDFYQAKAMAEILRFFNWTYVSTVASEGDYGETGIEAFEQEARLRNICIATAEKVGRSNIRKSYDSVIRELLQKPNARVVVLFMRSDDSRELIAAASRANASFTWVASDGWGAQESIIKGSEHVAYGAITLELASQPVRQFDRYFQSLNPYNNHRNPWFRDFWEQKFQCSLQNKRNHRRVCDKHLAIDSSNYEQESKIMFVVNAVYAMAHALHKMQRTLCPNTTKLCDAMKILDGKKLYKDYLLKINFTAPFNPNKDADSIVKFDTFGDGMGRYNVFNFQNVGGKYSYLKVGHWAETLSLDVNSIHWSRNSVPTSQCSDPCAPNEMKNMQPGDVCCWICIPCEPYEYLADEFTCMDCGSGQWPTADLTGCYDLPEDYIRWEDAWAIGPVTIACLGFMCTCMVVTVFIKHNNTPLVKASGRELCYILLFGVGLSYCMTFFFIAKPSPVICALRRLGLGSSFAICYSALLTKTNCIARIFDGVKNGAQRPKFISPSSQVFICLGLILVQIVMVSVWLILEAPGTRRYTLAEKRETVILKCNVKDSSMLISLTYDVILVILCTVYAFKTRKCPENFNEAKFIGFTMYTTCIIWLAFLPIFYVTSSDYRVQTTTMCISVSLSGFVVLGCLFAPKVHIILFQPQKNVVTHRLHLNRFSVSGTGTTYSQSSASTYVPTVCNGREVLDSTTSSL [GRM3] | – | – | plasma membrane surface immunostaining intensity (GPCR class: C): 6390 ± 16
MAWENQTFNSDFILLGIFNHSPTHTFLFFLVLAIFSVAFMGNSVMVLLIYLDTQLHTPMYFLLSQLFLMDLMLICSTVPKMAFNYLSGSKSISMAGCATQIFFYVSLLGSECFLLAVMSYDRYIAICHPLRYTNLMRPKICGLMTAFSWILGSMDAIIDAVATFSFSYCGSREIAHFFCDFPSLLILSCNDTSIFEKVLFICCIVMIVFPVAIIIASYARVILAVIHMGSGEGRRKAFTTCSSHLMVVGMYYGAGLFMYIRPTSDRSPMQDKLVSVFYTILTPMLNPLIYSLRNKEVTRALRKVLGKGKCGE [OR2M5] | – | 111 ± 20 | –
MTFRDLLSVSFEGPRPDSSAGGSSAGGGGGSAGGAAPSEGPAVGGVPGGAGGGGGVVGAGSGEDNRSSAGEPGSAGAGGDVNGTAAVGGLVVSAQGVGVGVFLAAFILMAVAGNLLVILSVACNRHLQTVTNYFIVNLAVADLLLSATVLPFSATMEVLGFWAFGRAFCDVWAAVDVLCCTASILSLCTISVDRYVGVRHSLKYPAIMTERKAAAILALLWVVALVVSVGPLLGWKEPVPPDERFCGITEEAGYAVFSSVCSFYLPMAVIVVMYCRVYVVARSTTRSLEAGVKRERGKASEVVLRIHCRGAATGADGAHGMRSAKGHTFRSSLSVRLLKFSREKKAAKTLAIVVGVFVLCWFPFFFVLPLGSLFPQLKPSEGVFKVIFWLGYFNSCVNPLIYPCSSREFKRAFLRLLRCQCRRRRRRRPLWRVYGHHWRASTSGLRQDCAPSSGDAPPGAPLALTALPDPDPEPPGTPEMQAPVASRRKPPSAFREWRLLGPFRRPTTQLRAKVSSLSHKIRAGGAQRAEAACAQRSEVEAVSLGVPHEVAEGATCQAYELADYSNLRETDI [ADRA1D] | 125 ± 25 | – | –
MWPNGSSLGPCFRPTNITLEERRLIASPWFAASFCVVGLASNLLALSVLAGARQGGSHTRSSFLTFLCGLVLTDFLGLLVTGTIVVSQHAALFEWHAVDPGCRLCRFMGVVMIFFGLSPLLLGAAMASERYLGITRPFSRPAVASQRRAWATVGLVWAAALALGLLPLLGVGRYTVQYPGSWCFLTLGAESGDVAFGLLFSMLGGLSVGLSFLLNTVSVATLCHVYHGQEAAQQRPRDSEVEMMAQLLGIMVVASVCWLPLLVFIAQTVLRNPPAMSPAGQLSRTTEKELLIYLRVATWNQILDPWVYILFRRAVLRRLQPRLSTRPRSLSLQPQLTQRSGLQ [TBXA2R] | 6469 ± 48 | – | –
MAQQWSLQRLAGRHPQDSYEDSTQSSIFTYTNSNSTRGPFEGPNYHIAPRWVYHLTSVWMIFVVTASVFTNGLVLAATMKFKKLRHPLNWILVNLAVADLAETVIASTISIVNQVSGYFVLGHPMCVLEGYTVSLCGITGLWSLAIISWERWMVVCKPFGNVRFDAKLAIVGIAFSWIWAAVWTAPPIFGWSRYWPHGLKTSCGPDVFSGSSYPGVQSYMIVLMVTCCIIPLAIIMLCYLQVWLAIRAVAKQQKESESTQKAEKEVTRMVVVMIFAYCVCWGPYTFFACFAAANPGYAFHPLMAALPAYFAKSATIYNPVIYVFMNRQFRNCILQLFGKKVDDGSELSSASKTEVSSVSSVSPA [OPN1LW] | 261 ± 14 | – | –
MVLNVYCCFFQISDIQTMKINQTILKEFILVGFSVYPHVQTFLFVVFFCLYLLTLAGNLIIMGLTWVDRSLHTPMYLFLSALSFSETCYTLTIVPKMLEDLLAKDRSISVTGCSLQMCFFLGLGGTNCIILTLMGYDRFLAICNPLRYPLLMTNIVCGQLVASACTAGFFISLTETALIFRDSFCRPNLVKHFFCHMLAVIRLSCIDSNHTEFIITLISVSGLLGTLLLIILTDVFIISTVLRIPSAEGKQKAFTTCASHLTVVIIHFGFASIVYLKPEASGDDTLIAVPYTVITPFLSPIIFSLRNKDMKNAFRRMMGNTVALKK [OR10X1] | – | 233 ± 96 | –
MAEMNLTLVTEFLLIAFTEYPEWALPLFLLFLFMYLITVLGNLEMIILILMDHQLHAPMYFLLSHLAFMDVCYSSITVPQMLAVLLEHGAALSYTRCAAQFFLFTFFGSIDCYLLALMAYDRYLAVCQPLLYVTILTQQARLSLVAGAYVAGLISALVRTVSAFTLSFCGTSEIDFIFCDLPPLLKLTCGESYTQEVLIIMFAIFVIPASMVVILVSYLFIIVAIMGIPAGSQAKTFSTCTSHLTAVSLFFGTLIFMYLRGNSDQSSEKNRVVSVLYTEVIPMLNPLIYSLRNKEVKEALRKILNRAKLS [OR9Q1] | – | 422 ± 160 | –
MPANFTEGSFDSSGTGQTLDSSPVACTETVTFTEVVEGKEWGSFYYSFKTEQLITLWVLFVFTIVGNSVVLFSTWRRKKKSRMTFFVTQLAITDSFTGLVNILTDINWRFTGDFTAPDLVCRVVRYLQVVLLYASTYVLVSLSIDRYHAIVYPMKFLQGEKQARVLIVIAWSLSFLFSIPTLIIFGKRTLSNGEVQCWALWPDDSYWTPYMTIVAFLVYFIPLTIISIMYGIVIRTIWIKSKTYETVISNCSDGKLCSSYNRGLISKAKIKAIKYSIIIILAFICCWSPYFLFDILDNFNLLPDTQERFYASVIIQNLPALNSAINPLIYCVFSSSISFPCREQRSQDSRMTFRERTERHEMQILSKPEFI [NPSR1] | 457 ± 42 | – | –
MQAALTAFFVLLFSLLSLLGIAANGFIVLVLGREWLRYGRLLPLDMILISLGASRFCLQLVGTVHNFYYSAQKVEYSGGLGRQFFHLHWHFLNSATFWFCSWLSVLFCVKIANITHSTFLWLKWRFPGWVPWLLLGSVLISFIITLLFFWVNYPVYQEFLIRKFSGNMTYKWNTRIETYYFPSLKLVIWSIPFSVFLVSIMLLINSLRRHTQRMQHNGHSLQDPSTQAHTRALKSLISFLILYALSFLSLIIDAAKFISMQNDFYWPWQIAVYLCISVHPFILIFSNLKLRSVFSQLLLLARGFWVA [TAS2R41] | – | – | plasma membrane surface immunostaining intensity (GPCR class: Taste): 129 ± 20
MEARNQTAISKFLLLGLIEDPELQPVLFSLFLSMYLVTILGNLLILLAVISDSHLHTPMYFFLSNLSFLDICLSTTTIPKMLVNIQAQNRSITYSGCLTQICFVLFFAGLENCLLAAMAYDRYVAICHPLRYTVIMNPRLCGLLILLSLLTSVVNALLLSLMVLRLSFCTDLEIPLFFCELAQVIQLTCSDTLINNILIYFAACIFGGVPLSGIILSYTQITSCVLRMPSASGKHKAVSTCGSHLSIVLLFYGAGLGVYISSVVTDSPRKTAVASVMYSVFPQMVNPFIYSLRNKDMKGTLRKFIGRIPSLLWCAICFGFRFLE [OR7G2] | – | 165 ± 53 | –
MEEENATLLTEFVLTGFLYQPQWKIPLFLAFLVIYLITIMGNLGLIAVIWKDPHLHIPMYLLLGNLAFVDAWISSTVTPKMLNNFLAKSKMISLSECKIQFFSIAIGVTTECFLLATMAYDRYVAICKPLLYPAIMTNGLCIRLLILSYIAGILHALIHEGFLFRLTFCNSNIVHHIYCDTIPLSKISCTDSSINFLMVFIFSGSIQVFSIVTILISYTFVLFTVLEKKSDKGVRKAFSTCGAHLFSVCLYYGPLLLMYVGPASPQADGQNMVEPLFYTVIIPLLNPIIYSLRNKQVIVSFIKMLKRNVKVSY [OR5H15] | – | 181 ± 56 | –
MEDFNMESDSFEDFWKGEDLSNYSYSSTLPPFLLDAAPCEPESLEINKYFVVIIYALVFLLSLLGNSLVMLVILYSRVGRSVTDVYLLNLALADLLFALTLPIWAASKVNGWIFGTFLCKVVSLLKEVNFYSGILLLACISVDRYLAIVHATRTLTQKRYLVKFICLSIWGLSLLLALPVLLFRRTVYSSNVSPACYEDMGNNTANWRMLLRILPQSFGFIVPLLIMLFCYGFTLRTLFKAHMGQKHRAMRVIFAVVLIFLLCWLPYNLVLLADTLMRTQVIQETCERRNHIDRALDATEILGILHSCLNPLIYAFIGQKFRHGLLKILAIHGLISKDSLPKDSRPSFVGSSSGHTSTTL [CXCR2] | 266 ± 3.4 | – | –
MDHCGALFLCLCLLTLQNATTETWEELLSYMENMQVSRGRSSVFSSRQLHQLEQMLLNTSFPGYNLTLQTPTIQSLAFKLSCDFSGLSLTSATLKRVPQAGGQHARGQHAMQFPAELTRDACKTRPRELRLICIYFSNTHFFKDENNSSLLNNYVLGAQLSHGHVNNLRDPVNISFWHNQSLEGYTLTCVFWKEGARKQPWGGWSPEGCRTEQPSHSQVLCRCNHLTYFAVLMQLSPALVPAELLAPLTYISLVGCSISIVASLITVLLHFHFRKQSDSLTRIHMNLHASVLLLNIAFLLSPAFAMSPVPGSACTALAAALHYALLSCLTWMAIEGFNLYLLLGRVYNIYIRRYVFKLGVLGWGAPALLVLLSLSVKSSVYGPCTIPVFDSWENGTGFQNMSICWVRSPVVHSVLVMGYGGLTSLFNLVVLAWALWTLRRLRERADAPSVRACHDTVTVLGLTVLLGTTWALAFFSFGVFLLPQLFLFTILNSLYGFFLFLWFCSQRCRSEAEAKAQIEAFSSSQTTQ [ADGRG5] | – | – | plasma membrane surface immunostaining intensity (GPCR class: B): 512 ± 20
MSVCYRPPGNETLLSWKTSRATGTAFLLLAALLGLPGNGFVVWSLAGWRPARGRPLAATLVLHLALADGAVLLLTPLFVAFLTRQAWPLGQAGCKAVYYVCALSMYASVLLTGLLSLQRCLAVTRPFLAPRLRSPALARRLLLAVWLAALLLAVPAAVYRHLWRDRVCQLCHPSPVHAAAHLSLETLTAFVLPFGLMLGCYSVTLARLRGARWGSGRHGARVGRLVSAIVLAFGLLWAPYHAVNLLQAVAALAPPEGALAKLGGAGQAARAGTTALAFFSSSVNPVLYVFTAGDLLPRAGPRFLTRLFEGSGEARGGGRSREGTMELRTTPQLKVVGQGRGNGDPGGGMEKDGPEWDL [LTB4R2] | 4310 ± 330 | – | –
